From PMC9295680 (Plant Direct, 2022)
Read-outs that look alike come from different tables or passages of the source. Each block holds one molecule with its values, some of them ahead of it.

What was measured:
Experiment in all cases: SEC-MALS
[1] = molecular target: homospermidine synthase (HSS) from Distimake quinquefolius individuum 1 (Distimake quinquefolius)
[2] = molecular target: homospermidine synthase (HSS) from Distimake quinquefolius individuum 2 (Distimake quinquefolius)
[3] = molecular target: homospermidine synthase (HSS) from Ipomoea alba (Ipomoea alba)
SEC-MALS [4] = molecular target: the molecule itself
SEC-MALS [5] = molecular target: the molecule itself; remark: listed apart in the source

Molecule: homospermidine synthase (HSS) from Ipomoea alba (enzyme)
stoichiometry N [3]: 4

B1: homospermidine synthase (HSS) from Camonea umbellata (enzyme, UniProt A0A6M4MJB9 1-377, looked up)
chain: MGEATRDQNSTMDSAHAAVFKKSESLDGACMKIEGYDFNRGIDYPQLLKSLLSTGFQASNLGEAIQIVNEMLDWRLSHEPIMEDCNDKEKDPAYRDSVTTKIFLGFTSNLVSSGVRETIRYLVQHHMVDVVVTTAGGIEEDLIKCLAPTYKGEFSLRGSVLRSKGLNRIGNLLVPNDNYCKFEDWIIPIFDQMYEEQTKQNVLWTPSKVIARLGKEINDESSYLYWAYKNEIPVFCPSLTDGSLGDMLYFHSFTKEVADNSDRNPGLIVDIVGDIRAMDGEAVHAGSRKTGVLILGGGLPKHHICNANMMRNGADFAAYINTAQEFDGSDSGARPDEAVSWGKIRCEAKTVKVHCDATIAFPLLVAETFATKARKLH
stoichiometry N (SEC-MALS [4]): 2 | stoichiometry N (SEC-MALS [5]): 4

Continued, values first:

stoichiometry N [1]: 4
Molecule: homospermidine synthase (HSS) from Distimake quinquefolius individuum 1 (enzyme)

stoichiometry N [2]: 4
Molecule: homospermidine synthase (HSS) from Distimake quinquefolius individuum 2 (enzyme)
